Changes are numbered by the printed parent chain.
B1: AbG (antibody, human IgG1, kappa)
heavy: QVTLRESGPALVKPTQTLTLTCTVSGASLSAYSVNWIRQPPGKALEWLAMIWGDGKIVYNSALKSRLTISKDTSKNQVVLTMTNMDPVDTATYYCAGDGYFPYAMDNWGQGSLVTVSSASTKGPSVFPLAPSSKSTSGGTAALGCLVKDYFPEPVTVSWNSGALTSGVHTFPAVLQSSGLYSLSSVVTVPSSSLGTQTYICNVNHKPSNTKVDKRVEPKSCDKTHTCPPCPAPELLGGPSVFLFPPKPKDTLYITREPEVTCVVVDVSHEDPEVKFNWYVDGVEVHNAKTKPREEQYNSTYRVVSVLTVLHQDWLNGKEYKCKVSNKALPAPIEKTISKAKGQPREPQVYTLPPSREEMTKNQVSLTCLVKGFYPSDIAVEWESNGQPENNYKTTPPVLDSDGSFFLYSKLTVDKSRWQQGNVFSCSVMHEALHNHYTQKSLSLSPGK
light: DIVMTQSPDSLSVSLGERATINCRASKSVDSYGNSYMHWYQQKPGQPPKLLIYLASNLESGVPDRFSGSGSGTDFTLTISSLQAEDVAVYYCQQNNEDPRTFGGGTKVEIKRTVAAPSVFIFPPSDEQLKSGTASVVCLLNNFYPREAKVQWKVDNALQSGNSQESVTEQDSKDSTYSLSSTLTLSKADYEKHKVYACEVTHQGLSSPVTKSFNRGEC
notes: also called Antibody AbG
B2: AbAB (antibody, human IgG1, kappa)
heavy: B1 heavy with L235F, L236E, P332S
light: B1 light
notes: same variable regions as AbG; also called Antibody AbAB
B3: Ref1 (antibody, human IgG1, kappa)
heavy: B1 heavy with A27F, F101Y
light: B1 light with Y36F
notes: hIgG1-YTE
B4: Ref2 (antibody, human IgG4 S228P, kappa)
heavy: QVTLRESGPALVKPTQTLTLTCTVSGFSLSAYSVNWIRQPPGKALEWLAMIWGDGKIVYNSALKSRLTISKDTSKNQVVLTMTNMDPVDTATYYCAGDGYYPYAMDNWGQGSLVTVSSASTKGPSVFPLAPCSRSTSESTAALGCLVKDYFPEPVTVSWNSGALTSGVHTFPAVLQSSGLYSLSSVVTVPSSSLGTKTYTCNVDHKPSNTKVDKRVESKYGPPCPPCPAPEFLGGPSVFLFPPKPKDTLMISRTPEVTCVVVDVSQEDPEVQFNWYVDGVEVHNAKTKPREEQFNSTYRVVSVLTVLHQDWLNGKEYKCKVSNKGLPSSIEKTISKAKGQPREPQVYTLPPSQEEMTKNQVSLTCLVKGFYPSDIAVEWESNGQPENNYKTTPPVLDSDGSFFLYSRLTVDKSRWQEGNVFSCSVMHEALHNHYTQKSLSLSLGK
light: B1 light with Y36F
notes: hIgG4; copies: 2 + 2
B5: Ref3 (antibody, human IgG1, kappa)
heavy: B1 heavy with A27F, F101Y, L235F, L236E, P332S
light: B1 light with Y36F

Experiments:
[1] = target: T1, human IL-13 (human, UniProt P35225 25-146, limits assumed); assay: KinExA, solution equilibrium, free antigen captured on Ref1-coated beads, 25 C
T1 construct: The KinExA antigen was detected with an anti-HIS IgG, so it probably carried a HIS tag; also called Interleukin-13; hIL-13
T1 sequence (P35225 other isoform, or with tags, fused parts or gaps limits assumed): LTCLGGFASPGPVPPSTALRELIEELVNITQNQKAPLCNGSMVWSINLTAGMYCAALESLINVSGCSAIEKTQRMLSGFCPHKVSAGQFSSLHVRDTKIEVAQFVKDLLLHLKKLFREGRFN

[2] = target: T2, cynomolgus IL-13 (cynomolgus, UniProt Q0PW92 21-132); assay: as above
T2 sequence (Q0PW92 entry or part of it): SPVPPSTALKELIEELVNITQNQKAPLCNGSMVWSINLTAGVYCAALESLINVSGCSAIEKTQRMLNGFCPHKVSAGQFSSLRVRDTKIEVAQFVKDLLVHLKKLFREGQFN

[3] = target: T1, human IL-13; assay: KinExA, 25 C
[4] = target: T3, mouse IL-13 (mouse, UniProt P20109 19-131, limits assumed); assay: SPR (Biacore 8K+), antibody captured on anti-human IgG Fc chip, IL-13 as analyte, 25 C
T3 construct: also called recombinant mouse IL-13
T3 sequence (looked up): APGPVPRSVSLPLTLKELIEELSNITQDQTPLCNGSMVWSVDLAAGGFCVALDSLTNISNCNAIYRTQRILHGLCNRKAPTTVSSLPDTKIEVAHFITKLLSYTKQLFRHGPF

[5] = target: T1, human IL-13; assay: SPR array (Carterra LSA), antibody captured on anti-human pAb HC30M chip, human IL-13 0.05-100 nM as analyte, 25 C, 1:1 fit
[6] = target: T1, human IL-13; assay: SPR (Biacore 8K+), antibody captured on anti-human Fc CM4 chip, human IL-13 0.6-10 nM as analyte, 37 C, 1:1 fit
[7] = target: T1, human IL-13; assay: SPR (Biacore 8K+), antibody captured, human IL-13 as analyte, 37 C; less than 5% decay in 5,400 s, KD estimated
[8] = target: T1, human IL-13; assay: cell-based or functional assay
[9] = target: human FcγRIIIb-NA2 (human, UniProt O75015 17-200, limits assumed, biotinylated (site not stated)); assay: BLI (Octet RH96), biotinylated Fcγ receptor on streptavidin sensors
Sequence of human FcγRIIIb-NA2 (O75015 17-200 N65S limits assumed): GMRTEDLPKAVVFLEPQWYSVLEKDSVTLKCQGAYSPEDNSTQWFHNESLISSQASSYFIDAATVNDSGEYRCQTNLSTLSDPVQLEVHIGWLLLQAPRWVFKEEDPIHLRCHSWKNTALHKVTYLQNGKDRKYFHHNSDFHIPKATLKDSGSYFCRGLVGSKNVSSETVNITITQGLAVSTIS

[10] = target: human FcγRIIIb-NA1 (human, UniProt O75015 17-200, limits assumed, biotinylated (site not stated)); assay: as above
Sequence of human FcγRIIIb-NA1 (O75015 other isoform, or with tags, fused parts or gaps limits assumed): as the sequence (O75015 17-200 N65S limits assumed) above, with S20R, S49N, N66D, I90V counted along it

[11] = target: T4, human FcγRIIa-R167 (human, UniProt P12318 36-218, limits assumed, biotinylated (site not stated)); assay: BLI (summary of Example 8)
T4 sequence (looked up): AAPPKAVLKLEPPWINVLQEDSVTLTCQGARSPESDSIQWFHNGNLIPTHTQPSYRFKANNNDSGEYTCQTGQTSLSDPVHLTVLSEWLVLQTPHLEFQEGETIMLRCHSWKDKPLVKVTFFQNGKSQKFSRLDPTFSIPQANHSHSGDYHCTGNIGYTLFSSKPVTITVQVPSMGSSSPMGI

[12] = target: T5, human FcγRIIa-H167 (human, UniProt P12318 36-218, limits assumed, biotinylated (site not stated)); assay: BLI (summary of Example 8)
T5 sequence (looked up): T4 sequence (looked up) with R132H

[13] = target: T6, human FcγRI (human, UniProt P12314 16-288, limits assumed, biotinylated (site not stated)); assay: BLI (summary of Example 8)
T6 sequence (P12314 16-288 limits assumed): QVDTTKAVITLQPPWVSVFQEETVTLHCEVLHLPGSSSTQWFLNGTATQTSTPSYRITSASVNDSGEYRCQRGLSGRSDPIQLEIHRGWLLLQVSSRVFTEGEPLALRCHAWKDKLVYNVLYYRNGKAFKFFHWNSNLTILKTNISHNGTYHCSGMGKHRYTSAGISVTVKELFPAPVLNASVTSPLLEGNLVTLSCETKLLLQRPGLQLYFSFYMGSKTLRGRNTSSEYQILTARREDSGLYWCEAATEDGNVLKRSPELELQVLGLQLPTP

[14] = target: T7, human FcγRIIb (human, UniProt P31994 46-217, limits assumed, biotinylated (site not stated)); assay: BLI (summary of Example 8)
T7 sequence (looked up): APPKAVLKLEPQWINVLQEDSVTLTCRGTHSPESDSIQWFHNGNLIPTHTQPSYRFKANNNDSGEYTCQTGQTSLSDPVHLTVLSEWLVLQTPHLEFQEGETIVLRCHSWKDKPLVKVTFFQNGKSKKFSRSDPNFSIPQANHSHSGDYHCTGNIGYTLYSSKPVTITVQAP

[15] = target: human FcγRIIIa-V176 (human, UniProt P08637 17-208, biotinylated (site not stated)); assay: BLI (Octet RH96), biotinylated Fcγ receptor on streptavidin sensors, antibody at 10,000 nM
Sequence of human FcγRIIIa-V176 (P08637 17-208 F176V limits assumed): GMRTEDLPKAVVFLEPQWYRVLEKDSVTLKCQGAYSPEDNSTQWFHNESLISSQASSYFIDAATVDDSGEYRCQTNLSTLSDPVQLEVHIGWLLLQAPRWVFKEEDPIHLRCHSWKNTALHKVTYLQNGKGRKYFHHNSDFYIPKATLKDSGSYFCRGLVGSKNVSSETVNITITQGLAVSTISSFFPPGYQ

[16] = target: human FcγRIIIa-F176 (human, UniProt P08637 17-208, biotinylated (site not stated)); assay: as above
Sequence of human FcγRIIIa-F176 (P08637 17-208 limits assumed): as the sequence (P08637 17-208 F176V limits assumed) above, with V160F counted along it

[17] = target: T1, human IL-13; assay: cell-based or functional assay; remark: listed apart in the source
[18] = target: T2, cynomolgus IL-13; assay: cell-based or functional assay
[19] = target: T8, HIS-tagged human FcRn (human, UniProt P55899 24-297; P61769 21-119); assay: SPR (Biacore 8K+), antibody captured on anti-human Fab CM4 chip, HIS-tagged human FcRn 9.8-5000 nM as analyte, pH 6.0, 25 C, steady-state fit
T8 construct: not shown: HIS tag
T8 sequence (P55899 24-297 limits assumed, chain 1 of 2): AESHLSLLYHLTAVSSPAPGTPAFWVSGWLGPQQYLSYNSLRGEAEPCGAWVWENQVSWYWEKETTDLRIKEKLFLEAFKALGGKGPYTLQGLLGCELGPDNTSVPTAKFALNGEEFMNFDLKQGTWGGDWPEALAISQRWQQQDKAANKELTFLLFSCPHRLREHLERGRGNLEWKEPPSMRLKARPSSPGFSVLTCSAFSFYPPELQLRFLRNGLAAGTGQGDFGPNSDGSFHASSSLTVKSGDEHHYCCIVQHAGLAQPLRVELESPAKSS
T8 sequence (P61769 21-119 limits assumed, chain 2 of 2): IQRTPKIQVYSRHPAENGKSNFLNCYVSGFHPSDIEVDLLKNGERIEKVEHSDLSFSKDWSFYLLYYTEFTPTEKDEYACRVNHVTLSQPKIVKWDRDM

[20] = target: T1, human IL-13; assay: cell-based or functional assay; remark: listed apart in the source
[21] = target: T8, HIS-tagged human FcRn; assay: SPR (Biacore 8K+), pH 6.0, 25 C, steady-state fit
[22] = target: T1, human IL-13; assay: SPR (Biacore 8K+), antibody captured on anti-human pAb CM4 chip, human IL-13 0.6-10 nM as analyte, 37 C, 1:1 fit
[23] = target: T4, human FcγRIIa-R167; assay: BLI (Octet RH96), biotinylated Fcγ receptor on streptavidin sensors, antibody at 10,000 nM
[24] = target: T5, human FcγRIIa-H167; assay: as above
[25] = target: T6, human FcγRI; assay: as above
[26] = target: T7, human FcγRIIb; assay: as above

| Binder | Kd [1] [nM] | koff [1] [s⁻¹] | kon [1] [M⁻¹ s⁻¹] | Kd [2] [nM] | koff [2] [s⁻¹] | kon [2] [M⁻¹ s⁻¹] | binding result [4] | Kd [5] [nM] | Kd [6] [nM] | koff [6] [s⁻¹] | kon [6] [M⁻¹ s⁻¹] | IC50, HEK-Blue IL-13Ra1/IL-4Ra STAT6-SEAP reporter assay [8] [µg/mL] | binding result [9] | binding result [10] | binding result [16] | Mean IC50 (nM) Donor 1, Phospho-STAT6 assay in human CD14+ monocytes [17] [nM] | Mean IC50 (nM) Donor 2, Phospho-STAT6 assay in human CD14+ monocytes [17] [nM] | Mean IC50 (nM) Donor 3, Phospho-STAT6 assay in human CD14+ monocytes [17] [nM] | Kd [19] [nM] | Kd [22] [nM] | further results |
| --- | --- | --- | --- | --- | --- | --- | --- | --- | --- | --- | --- | --- | --- | --- | --- | --- | --- | --- | --- | --- | --- |
| B1 | 0.00023 | 4.8e-07 | 2.06e+06 | 0.00072 | 1.77e-06 | 2.46e+06 | no binding | < 0.1 | 0.0126 | 7.68e-06 | 639000 | 0.174 | – | – | – | – | – | – | – | – | fold higher affinity than Ref2 [3]: 40 fold; Kd [7]: < 0.015 nM |
| B2 | – | – | – | – | – | – | no binding | – | 0.00722 | 4.85e-06 | 676000 | – | no binding (tested: 10,000 nM) | no binding (tested: 10,000 nM) | binds | 34.9 | 33 | 37.7 | 129 | – | binding result [11]: binds; binding result [12]: binds; binding result [13]: binds; binding result [14]: binds; binding result [15]: binds; Mean IC50 (nM) Donor 1, Phospho-STAT6 assay in cynomolgus CD14+ monocytes [18]: 18.8 nM; Mean IC50 (nM) Donor 2, Phospho-STAT6 assay in cynomolgus CD14+ monocytes [18]: 15.1 nM; Mean IC50 (nM) Donor 3, Phospho-STAT6 assay in cynomolgus CD14+ monocytes [18]: 18.1 nM; Mean IC50 (nM), HEK-Blue IL-4/IL-13 assay with 3.7 nM IL-13 [20]: 0.113 nM; fold higher affinity than Ref2 [21]: 6 fold |
| B3 | 0.00613 | 9.37e-06 | 1.53e+06 | 0.00052 | 1.09e-06 | 2.09e+06 | – | < 0.1 | 0.0551 | 2.66e-05 | 483000 | 0.143 | – | – | – | – | – | – | – | 0.0484 | koff [22]: 2.64e-05 s⁻¹; kon [22]: 594000 M⁻¹ s⁻¹ |
| B4 | 0.00909 | 9.76e-06 | 1.07e+06 | – | – | – | no binding | – | – | – | – | 0.277 | no binding (tested: 10,000 nM) | no binding (tested: 10,000 nM) | binds | – | – | – | 734 | 0.0512 | binding result [23]: binds; binding result [24]: binds; binding result [25]: binds; binding result [26]: binds; koff [22]: 3.22e-05 s⁻¹; kon [22]: 695000 M⁻¹ s⁻¹ |
| B5 | – | – | – | – | – | – | no binding | – | 0.0507 | 2.52e-05 | 501000 | – | – | – | – | 32.2 | 31.3 | 33.9 | – | – | – |

Reference: patent US20260116963A1 (GENERATE BIOMEDICINES, published 2026)
